{"source": "the RNAGym collection of RNA variant scans (doi:10.7554/elife.80360)", "parents": {"B1": {"name": "HDV Ribozyme (parent)", "chain": "GGCCGGCAUGGUCCCAGCCUCCUCGCUGGCGCCGGCUGGGCAACAUUCCGAGGGGACCGUCCCCUCGGUAAUGGCGAAUGGGACCCA"}}}
{"variants_of": "B1", "assay": "self-cleavage, relative activity (ratio to wild type); higher = more cleavage; co-transcriptional"}
{"variant": "CGCCGGCAUGAUCCCAGCCUCCUCGCUGGCGCCGGCUGGGCAACAUUCCGAGGGGACCGUCCCCUCGGUAAUGGCGAAUGGGACCCA", "self-cleavage": 0.0652}
{"variant": "CGCCGGCAUGCUCCCAGCCUCCUCGCUGGCGCCGGCUGGGCAACAUUCCGAGGGGACCGUCCCCUCGGUAAUGGCGAAUGGGACCCA", "self-cleavage": 0.131}
{"variant": "CGCCGCCAUGGUCCCAGCCUCCUCGCUGGCGCCGGCUGGGCAACAUUCCGAGGGGACCGUCCCCUCGGUAAUGGCGAAUGGGACCCA", "self-cleavage": 0}
{"variant": "CGCCGGCAUGGUUCCAGCCUCCUCGCUGGCGCCGGCUGGGCAACAUUCCGAGGGGACCGUCCCCUCGGUAAUGGCGAAUGGGACCCA", "self-cleavage": 0.125}
{"variant": "CGCCGGCAUGGUCCCAGCCUCCUCGCUGGCGCCGGCUGGGCAACAUUCCGAGGGGACCGUCCCCUCGGUAAUUGCGAAUGGGACCCA", "self-cleavage": 0.0426}
{"variant": "CGCCGGCAUGGUCCCAGCCUCCUCGCUGGCGCCGGCUGGGCAACAUUCCGAGGGGACCGUCCCCUCGGUAAUGGCGAAUGAGACCCA", "self-cleavage": 0}
{"variant": "CGCCGGCAUGGUCCCAGCCUCCUCGCUGGCGCCGGCUGGGCAACAUUCCGACGGGACCGUCCCCUCGGUAAUGGCGAAUGGGACCCA", "self-cleavage": 0.256}
{"variant": "CGCCGGCAUGGUCCCAGCCUCCUCGCUGGCGCCGGCUGGGCAACAUUCCGAGGGGACCGUCCCCUCGGUAUUGGCGAAUGGGACCCA", "self-cleavage": 0}
{"variant": "CGCCGGCAUGGUCCCAGCCUCCUCGCUGGCGCCGGCUGGGCAACAUUCAGAGGGGACCGUCCCCUCGGUAAUGGCGAAUGGGACCCA", "self-cleavage": 0.237}
{"variant": "CGCCGGCAUGGUCCCAGCCUCCUCGCUGGCGCCGGCUGGGCAACAUUCCGAGGGGACCGUCCCCUCGGUAAUGGCGAAUGGGACCUA", "self-cleavage": 0.262}
{"variant": "CGCCAGCAUGGUCCCAGCCUCCUCGCUGGCGCCGGCUGGGCAACAUUCCGAGGGGACCGUCCCCUCGGUAAUGGCGAAUGGGACCCA", "self-cleavage": 0.0536}
{"variant": "CGCCGGCAUGGUCCCAGCCUCCUCGCUGGCGCCGGCUGGGCAACAUUCCGAGGGGACCGUCCCCUCGGUAAUGGCAAAUGGGACCCA", "self-cleavage": 0.26}
{"variant": "CGCCGGCAUGGUCCCAGCCUCCUCGCUGGCGCCGGCUGGGCAACAUUCCGAGGGGACCGUCCCUUCGGUAAUGGCGAAUGGGACCCA", "self-cleavage": 0.155}
{"variant": "CGCCGGCAUGGUCCCAGCCUCCUCGCUGGCGCCGGCUGGGCAACAUUCCGAGGGGACCGUCCCCUCGGUAAUGGCGAAUCGGACCCA", "self-cleavage": 0.0475}
{"variant": "CGCCGGCAUGGUCCCAGCCUCCUCGCUGGCGCCGGCUGGGCAACAUUCCGAGGGGACCGUCCCCUCGGUAAUGGCGAAUGGGACCCC", "self-cleavage": 0.156}
{"variant": "CGCCGGCAUGGUCCCAGCCUCCUCGCUGGCGCCGACUGGGCAACAUUCCGAGGGGACCGUCCCCUCGGUAAUGGCGAAUGGGACCCA", "self-cleavage": 0.208}
{"variant": "CGCCGGCAUGGUCCCAGCCUCCUCGCUGGCGCCGCCUGGGCAACAUUCCGAGGGGACCGUCCCCUCGGUAAUGGCGAAUGGGACCCA", "self-cleavage": 0}
{"variant": "CGCCGGCAUGGUCCCAGCCUCCUCGCUGGCGCCAGCUGGGCAACAUUCCGAGGGGACCGUCCCCUCGGUAAUGGCGAAUGGGACCCA", "self-cleavage": 0.0405}
{"variant": "CGCCGGCAUGGUCCUAGCCUCCUCGCUGGCGCCGGCUGGGCAACAUUCCGAGGGGACCGUCCCCUCGGUAAUGGCGAAUGGGACCCA", "self-cleavage": 0.0831}
{"variant": "CGCCGGCAUGGUCCCAGCCUCCUCGCUGGCGCCGGCUGGGCAGCAUUCCGAGGGGACCGUCCCCUCGGUAAUGGCGAAUGGGACCCA", "self-cleavage": 0}
{"variant": "CGCCGGCAUGGUCCCAGCCUCCUCGCUGGUGCCGGCUGGGCAACAUUCCGAGGGGACCGUCCCCUCGGUAAUGGCGAAUGGGACCCA", "self-cleavage": 0.0755}
{"variant": "CGCCGGCAUGGUCCCAGCCUCCUCGCUGGCGCCGGCUGGCCAACAUUCCGAGGGGACCGUCCCCUCGGUAAUGGCGAAUGGGACCCA", "self-cleavage": 0.0475}
{"variant": "CGCCGGCAUGGUCCCAGCCUCCUUGCUGGCGCCGGCUGGGCAACAUUCCGAGGGGACCGUCCCCUCGGUAAUGGCGAAUGGGACCCA", "self-cleavage": 0.0489}
{"variant": "CCCCGGCAUGGUCCCAGCCUCCUCGCUGGCGCCGGCUGGGCAACAUUCCGAGGGGACCGUCCCCUCGGUAAUGGCGAAUGGGACCCA", "self-cleavage": 1.06}
{"variant": "CGCCGGCAUGGUCCCAGGCUCCUCGCUGGCGCCGGCUGGGCAACAUUCCGAGGGGACCGUCCCCUCGGUAAUGGCGAAUGGGACCCA", "self-cleavage": 0}
{"variant": "CGCCGGCAUGGUCCCAGCCUCCUCGCUGGCGCCGGCUGGGGAACAUUCCGAGGGGACCGUCCCCUCGGUAAUGGCGAAUGGGACCCA", "self-cleavage": 0}
{"variant": "CGCCGGCAUGGUCCCGGCCUCCUCGCUGGCGCCGGCUGGGCAACAUUCCGAGGGGACCGUCCCCUCGGUAAUGGCGAAUGGGACCCA", "self-cleavage": 0.196}
{"variant": "CGCCGGCGUGGUCCCAGCCUCCUCGCUGGCGCCGGCUGGGCAACAUUCCGAGGGGACCGUCCCCUCGGUAAUGGCGAAUGGGACCCA", "self-cleavage": 0.123}
{"variant": "CGCCGGCAUGGUCCCAGCCUCCUCGCUGGCGCCGGCUGGGCAACAUUCCGAGGGGACCGUCCCCUCGGUAAUGGCGAAUGGGACUCA", "self-cleavage": 0.266}
{"variant": "CGCCGGCAUGGUCCCAGCCUCCUCGCUGGCGCCGGCUGGGCAACAUUCCGAGGGGACCGUCCCCUCGGUAAUGGCGAAUGGGACGCA", "self-cleavage": 0.151}
{"variant": "CGCCGGCAUGGUCCCAGCCUCCUCGCUGGCGCCGGCUGGGCAACAUUCCGUGGGGACCGUCCCCUCGGUAAUGGCGAAUGGGACCCA", "self-cleavage": 0.222}
{"variant": "CGCCGGCAUGGUCCCAGCCUCCUCGCUGUCGCCGGCUGGGCAACAUUCCGAGGGGACCGUCCCCUCGGUAAUGGCGAAUGGGACCCA", "self-cleavage": 0.142}
